Test results reported in the supplement of paper PMC10567573.

B1: DLC1 (parent)
chain: AIQGISEKEKAEIEAKEACDWLRA
B2: NET1 (parent)
chain: RVRPLARVTSLANLISPVRNGAVR

Variants of: B1
Assay: protein stability index of a GFP-peptide fusion (GPS, HEK-293T) (PSI 1-6); higher = more stable
Conditions: c terminus: a fixed tail appended
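Further: lentivirally expressed fusions sorted by FACS into six bins by GFP to DsRed ratio, PSI derived from sequencing read proportions per bin multiplied by bin number.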

Protein stability index, by site and new letter:
I13: Y 4.46, A 4.7, F 3.94, S 4.85, N 4.66, D 5.06
A15: H 4.33, P 4.51, Y 4.33, M 4.24, C 4.29, K 4.61
A1: R 4.55, F 3.18, T 4.6, I 3.94, D 4.96, Y 3.71, K 4.32, W 3.23
E17: M 3.86, R 3.7, T 4.34, K 4.23
C19: T 5.12, H 4.75, D 5.19, E 5.65, W 4.45, L 3.98
E14: N 3.54, Y 3.91, R 3.61
A24: T 4.46, M 3.52, D 5.14, W 3.7, C 4.55, E 5.03, Y 4.72
I2: M 4.94, K 4.56, H 4.9, A 4.94, F 4.81
K10: T 4.68, Y 4.11, D 4.47, F 3.71, E 4, L 4.08, G 4.17
I5: Q 4.97, N 4.79, K 4.71, Y 4.45, M 5.16, W 4.47
Q3: D 5.2, S 4.56, C 4.28, Y 3.47, K 4.27, N 3.77
A18: W 4.27, D 4.89, P 4.88, H 4.8, C 4.43
R23: W 4.91, T 5.14, P 4.7, K 4.62, Y 3.8, D 5.42, C 4.73
G4: S 4.45, R 3.08, F 4.24
A11: G 4.56, Q 4.57, K 4.47, N 4.5, M 3.99, P 4.51
K16: M 4.24, A 4.35, C 4.14, G 4.35, W 4.09, F 3.61, L 4.1, Q 4.44, R 4.55
K8: D 4.61, S 3.98, W 3.68
W21: G 5.35, A 5.41, M 5.6, N 5.1, V 4.89, C 5.35
E9: T 4.12, D 4.2, V 3.88, I 3.29, G 4.23, L 2.97
E7: A 4.25, R 3.62, M 3.67, K 4.3, S 4.15
D20: M 3.63, Q 3.91, Y 3.97, V 3.81, S 4.28
S6: K 3.96, I 3.58, L 3.56, E 4.99, N 4.54
E12: H 3.46, A 3.89, C 3.85, P 4.63, G 4.42, M 3.98, L 3.72, Y 3.53, K 3.81
L22: V 4.73, C 4.17, K 5.38, F 4.61, D 5.49

Variants of: B2
Assay: as above
Conditions: c terminus: a fixed tail appended

Protein stability index of substitutions, site by site:
R1: F 3.21, T 3.25, C 2.61, M 2.97, N 3.42, K 2.97, V 2.15, E 2.79, W 2.36, Y 2.22, L 2, H 2.87, Q 3.19, P 3.11, G 3.11, I 2.81, S 3.43, D 3.73
V2: G 3.08, H 2.91, I 2.25, L 2.29, C 2.64, D 3.77, F 1.97, A 3, E 3.69, M 3.04, K 3.65
